# Laboratory results: the supplement of paper PMC9112550, “Optimization of the antimicrobial peptide Bac7 by deep mutational scanning” (BMC Biology, 2022)
# Test system: Escherichia coli TOP10
# Assay: shrunken log2 fold change of peptide-encoding DNA abundance (4.5 h post-induction vs induction); higher = less antimicrobial activity (less host growth inhibition)
# Details: time post-induction: 4.5 h; library: site-saturation at positions 5, 18, 19, 20
# 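Further: peptides expressed intracellularly from a pBAD plasmid library in pooled LB shake-flask culture, induced with 0.3% L-arabinose, DNA abundance read by NGS, three biological replicates, DESeq2 with apeglm shrinkage.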
row,Sequence,shrunken log2 fold change
1,RRIRWRPPRLPRPRPRPEIMPRP,1.1
2,RRIRGRPPRLPRPRPRPAQGPRP,0.313
3,RRIRARPPRLPRPRPRPNMRPRP,0.25
4,RRIRDRPPRLPRPRPRPSMKPRP,-0.198
5,RRIRQRPPRLPRPRPRPWKGPRP,0.013
6,RRIRVRPPRLPRPRPRPSRYPRP,-0.0975
7,RRIRGRPPRLPRPRPRPVWTPRP,0.674
8,RRIRHRPPRLPRPRPRPVIMPRP,-1
9,RRIRQRPPRLPRPRPRPDPCPRP,-0.243
10,RRIRVRPPRLPRPRPRPQHRPRP,0.0105
11,RRIRYRPPRLPRPRPRPGALPRP,0.137
12,RRIRLRPPRLPRPRPRPYWTPRP,-0.435
13,RRIRYRPPRLPRPRPRPAMIPRP,-0.229
14,RRIRIRPPRLPRPRPRPVKEPRP,-0.0496
15,RRIRDRPPRLPRPRPRPDFFPRP,0.195
16,RRIRSRPPRLPRPRPRPVRCPRP,0.221
17,RRIRLRPPRLPRPRPRPDNAPRP,0.0803
18,RRIRIRPPRLPRPRPRPKIDPRP,-0.573
19,RRIRCRPPRLPRPRPRPDDTPRP,-0.36
20,RRIRGRPPRLPRPRPRPLKVPRP,0.271
21,RRIRHRPPRLPRPRPRPHYHPRP,-0.785
22,RRIRNRPPRLPRPRPRPEFEPRP,0.114
23,RRIRKRPPRLPRPRPRPVAPPRP,0.528
24,RRIRSRPPRLPRPRPRPQRFPRP,-0.152
25,RRIRKRPPRLPRPRPRPKAGPRP,0.504

row,Sequence,shrunken log2 fold change
1,RRIRTRPPRLPRPRPRPQGLPRP,-0.0814
2,RRIRYRPPRLPRPRPRPKCEPRP,-0.0192
3,RRIRMRPPRLPRPRPRPSDPPRP,-0.0636
4,RRIRTRPPRLPRPRPRPQFDPRP,-0.652
5,RRIRRRPPRLPRPRPRPRWCPRP,0.0597
6,RRIRTRPPRLPRPRPRPKYSPRP,-0.413
7,RRIRRRPPRLPRPRPRPIEMPRP,0.0754
8,RRIRARPPRLPRPRPRPHGSPRP,-0.071
9,RRIRHRPPRLPRPRPRPNRAPRP,-0.0865
10,RRIRWRPPRLPRPRPRPLVSPRP,1.59
11,RRIRDRPPRLPRPRPRPAFWPRP,-0.0581
12,RRIRHRPPRLPRPRPRPIWNPRP,-0.892
13,RRIRHRPPRLPRPRPRPCLIPRP,-0.11
14,RRIRARPPRLPRPRPRPWYQPRP,-0.287
15,RRIRIRPPRLPRPRPRPTFRPRP,-0.261
16,RRIRQRPPRLPRPRPRPQARPRP,-0.0121
17,RRIRKRPPRLPRPRPRPHPYPRP,-0.0228
18,RRIRTRPPRLPRPRPRPADDPRP,0.165
19,RRIRNRPPRLPRPRPRPLHRPRP,-0.249
20,RRIRARPPRLPRPRPRPVYCPRP,-0.175
21,RRIRCRPPRLPRPRPRPGKCPRP,-0.173
22,RRIRKRPPRLPRPRPRPVRRPRP,0.377
23,RRIRFRPPRLPRPRPRPVRIPRP,-0.0436
24,RRIRTRPPRLPRPRPRPGIRPRP,-0.0147
25,RRIRNRPPRLPRPRPRPESSPRP,-0.00568

row,Sequence,shrunken log2 fold change
1,RRIRPRPPRLPRPRPRPWQHPRP,-0.105
2,RRIRDRPPRLPRPRPRPVSAPRP,0.666
3,RRIRDRPPRLPRPRPRPNINPRP,-0.35
4,RRIRTRPPRLPRPRPRPESEPRP,-0.0433
5,RRIRIRPPRLPRPRPRPHFRPRP,-0.555
6,RRIRSRPPRLPRPRPRPPHNPRP,-0.0338
7,RRIRIRPPRLPRPRPRPIAYPRP,-0.32
8,RRIRNRPPRLPRPRPRPLDVPRP,-0.251
9,RRIRVRPPRLPRPRPRPIYNPRP,-0.675
10,RRIRTRPPRLPRPRPRPKFIPRP,-0.175
11,RRIRRRPPRLPRPRPRPKGLPRP,0.238
12,RRIRVRPPRLPRPRPRPTEMPRP,-0.0269
13,RRIRARPPRLPRPRPRPSKMPRP,-0.00925
14,RRIRKRPPRLPRPRPRPVLVPRP,-0.0465
15,RRIRFRPPRLPRPRPRPPQRPRP,0.617
16,RRIRERPPRLPRPRPRPFDLPRP,-0.504
17,RRIRIRPPRLPRPRPRPREQPRP,0.198
18,RRIRRRPPRLPRPRPRPFPMPRP,0.0657
19,RRIRLRPPRLPRPRPRPVTMPRP,-0.195
20,RRIRSRPPRLPRPRPRPMIDPRP,-0.249
21,RRIRCRPPRLPRPRPRPTLKPRP,0.017
22,RRIRNRPPRLPRPRPRPVAQPRP,0.089
23,RRIRFRPPRLPRPRPRPFVIPRP,-0.479
24,RRIRKRPPRLPRPRPRPCIKPRP,0.193
25,RRIRNRPPRLPRPRPRPYTKPRP,-0.0607

row,Sequence,shrunken log2 fold change
1,RRIRVRPPRLPRPRPRPLETPRP,-0.062
2,RRIRLRPPRLPRPRPRPNHMPRP,-0.326
3,RRIRKRPPRLPRPRPRPIRNPRP,-0.34
4,RRIRERPPRLPRPRPRPQDWPRP,-0.206
5,RRIRARPPRLPRPRPRPMLTPRP,0.466
6,RRIRQRPPRLPRPRPRPMCVPRP,-0.308
7,RRIRGRPPRLPRPRPRPWMDPRP,0.166
8,RRIRDRPPRLPRPRPRPPCGPRP,0.411
9,RRIRGRPPRLPRPRPRPSTWPRP,0.22
10,RRIRARPPRLPRPRPRPKNKPRP,0.216
11,RRIRCRPPRLPRPRPRPAFFPRP,0.0268
12,RRIRIRPPRLPRPRPRPWFVPRP,-0.578
13,RRIRIRPPRLPRPRPRPKYCPRP,0.00104
14,RRIRPRPPRLPRPRPRPLKQPRP,0.0902
15,RRIRQRPPRLPRPRPRPPQRPRP,0.655
16,RRIRLRPPRLPRPRPRPVYPPRP,-0.132
17,RRIRNRPPRLPRPRPRPVHRPRP,-0.0338
18,RRIRPRPPRLPRPRPRPHKFPRP,-0.547
19,RRIRKRPPRLPRPRPRPQVDPRP,0.288
20,RRIRWRPPRLPRPRPRPTNKPRP,-0.195
21,RRIRERPPRLPRPRPRPIGAPRP,-0.464
22,RRIRWRPPRLPRPRPRPHHIPRP,-0.612
23,RRIRDRPPRLPRPRPRPSTPPRP,-0.238
24,RRIRTRPPRLPRPRPRPKWYPRP,-0.468
25,RRIRARPPRLPRPRPRPQSYPRP,-0.118

row,Sequence,shrunken log2 fold change
1,RRIRQRPPRLPRPRPRPEILPRP,0.00769
2,RRIRQRPPRLPRPRPRPKYTPRP,-0.776
3,RRIRYRPPRLPRPRPRPICRPRP,-0.226
4,RRIRWRPPRLPRPRPRPSNFPRP,-0.391
5,RRIRFRPPRLPRPRPRPDRSPRP,0.0602
6,RRIRQRPPRLPRPRPRPCQCPRP,-0.034
7,RRIRIRPPRLPRPRPRPTRTPRP,0.22
8,RRIRNRPPRLPRPRPRPYLQPRP,-0.00906
9,RRIRHRPPRLPRPRPRPYSDPRP,-1.17
10,RRIRQRPPRLPRPRPRPTISPRP,-0.379
11,RRIRDRPPRLPRPRPRPGMHPRP,0.0286
12,RRIRFRPPRLPRPRPRPCYDPRP,-0.0301
13,RRIRCRPPRLPRPRPRPLPKPRP,0.258
14,RRIRWRPPRLPRPRPRPYWTPRP,-0.175
15,RRIRQRPPRLPRPRPRPDMVPRP,-0.0075
16,RRIRIRPPRLPRPRPRPKHEPRP,0.0924
17,RRIRCRPPRLPRPRPRPGQKPRP,0.0902
18,RRIRIRPPRLPRPRPRPGDNPRP,-0.317
19,RRIRARPPRLPRPRPRPMAQPRP,0.23
20,RRIRSRPPRLPRPRPRPTHMPRP,0.188
21,RRIRYRPPRLPRPRPRPRDEPRP,0.047
22,RRIRFRPPRLPRPRPRPTKNPRP,-0.0239
23,RRIRRRPPRLPRPRPRPRNMPRP,0.112
24,RRIRTRPPRLPRPRPRPFFEPRP,0.123
25,RRIRYRPPRLPRPRPRPLNKPRP,-0.449
